Results from the supplement of paper PMC6757056.
± gives the standard deviation of the averaged measurements.

B1: library; a variant is named by its letters at N, in order (parent)
chain: GCUGUCACCGGUGCUUGGUACGUUAUAUUCAGCCGGUCUGAUGAGUCUNNNNNNAGACGAAACAGC

How the values were obtained:
[1] = variants of: B1; assay: normalized RNA/DNA level without ligand (relative to sTRSVctl = 100) (log10 (% of sTRSVctl)); HEK293T overexpressing SLC46A1; higher = less ribozyme self-cleavage, higher mRNA level; details: without (6R,S)-folinic acid; ligand present: no
Summary of the method: (§1)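 Total RNA, extracted with EDTA 72 h after HEK293T cells were transfected with 4 µg per 6-well well of reporter-linked ribozyme switch library plasmids, was reverse-transcribed, amplified, barcoded and sequenced. Ligand, if used, was added 1 h before transfection. RNA level was derived from RNA reads divided by DNA reads and normalized to a spiked-in non-cleaving sequence or to the top sequences. This was multiplied by 100 and log10-transformed, with the top set of 25 sequences and a ≥100 DNA read minimum.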

[2] = variants of: B1; assay: normalized RNA/DNA level with ligand (relative to sTRSVctl = 100) (log10 (% of sTRSVctl)); HEK293T overexpressing SLC46A1; ligand concentration (+) RNA-Seq: 6 mM; higher = less ribozyme self-cleavage, higher mRNA level; details: with (6R,S)-folinic acid; ligand present: yes
Summary of the method: as §1

Variant | normalized RNA/DNA level without ligand (log10) [1] | normalized RNA/DNA level with ligand (log10) [2]
GCUGUCACCGGUGCUUGGUACGUUAUAUUCAGCCGGUCUGAUGAGUCUCAUCGAAGACGAAACAGC | 2.045 ± 0.0027 | 2.06 ± 0.026
GCUGUCACCGGUGCUUGGUACGUUAUAUUCAGCCGGUCUGAUGAGUCUAAUCGAAGACGAAACAGC | 1.974 ± 0.019 | 2 ± 0.029
GCUGUCACCGGUGCUUGGUACGUUAUAUUCAGCCGGUCUGAUGAGUCUGAUCGAAGACGAAACAGC | 2.033 ± 0.008 | 2.02 ± 0.036
GCUGUCACCGGUGCUUGGUACGUUAUAUUCAGCCGGUCUGAUGAGUCUUAUCGAAGACGAAACAGC | 1.927 ± 0.0098 | 2 ± 0.028
GCUGUCACCGGUGCUUGGUACGUUAUAUUCAGCCGGUCUGAUGAGUCUGAUCGCAGACGAAACAGC | 1.998 ± 0.016 | 2.032 ± 0.014
GCUGUCACCGGUGCUUGGUACGUUAUAUUCAGCCGGUCUGAUGAGUCUUAUCGCAGACGAAACAGC | 2.014 ± 0.0075 | 2.03 ± 0.043
GCUGUCACCGGUGCUUGGUACGUUAUAUUCAGCCGGUCUGAUGAGUCUCAUCGGAGACGAAACAGC | 1.99 ± 0.024 | 2.02 ± 0.026
GCUGUCACCGGUGCUUGGUACGUUAUAUUCAGCCGGUCUGAUGAGUCUGAUCGGAGACGAAACAGC | 2.084 ± 0.015 | 2.07 ± 0.04
GCUGUCACCGGUGCUUGGUACGUUAUAUUCAGCCGGUCUGAUGAGUCUCAUCGUAGACGAAACAGC | 2.05 ± 0.021 | 2.02 ± 0.025
GCUGUCACCGGUGCUUGGUACGUUAUAUUCAGCCGGUCUGAUGAGUCUAAUCGUAGACGAAACAGC | 1.99 ± 0.0073 | 2.013 ± 0.0078
GCUGUCACCGGUGCUUGGUACGUUAUAUUCAGCCGGUCUGAUGAGUCUGAUCGUAGACGAAACAGC | 2.02 ± 9.8e-05 | 2.02 ± 0.052
GCUGUCACCGGUGCUUGGUACGUUAUAUUCAGCCGGUCUGAUGAGUCUUAUCGUAGACGAAACAGC | 1.947 ± 0.0084 | 2.01 ± 0.038
GCUGUCACCGGUGCUUGGUACGUUAUAUUCAGCCGGUCUGAUGAGUCUCAUCUAAGACGAAACAGC | 2.05 ± 0.022 | 2.074 ± 0.012
GCUGUCACCGGUGCUUGGUACGUUAUAUUCAGCCGGUCUGAUGAGUCUGAUCUAAGACGAAACAGC | 2.03 ± 0.024 | 2.027 ± 0.02
GCUGUCACCGGUGCUUGGUACGUUAUAUUCAGCCGGUCUGAUGAGUCUUAUCUAAGACGAAACAGC | 1.987 ± 0.0076 | 2.03 ± 0.028
GCUGUCACCGGUGCUUGGUACGUUAUAUUCAGCCGGUCUGAUGAGUCUAAUCUCAGACGAAACAGC | 2.068 ± 0.011 | 2.04 ± 0.034
GCUGUCACCGGUGCUUGGUACGUUAUAUUCAGCCGGUCUGAUGAGUCUGAUCUCAGACGAAACAGC | 2.0583 ± 0.00073 | 1.99 ± 0.035
GCUGUCACCGGUGCUUGGUACGUUAUAUUCAGCCGGUCUGAUGAGUCUUAUCUCAGACGAAACAGC | 2.053 ± 0.018 | 2.03 ± 0.027
GCUGUCACCGGUGCUUGGUACGUUAUAUUCAGCCGGUCUGAUGAGUCUCAUCUGAGACGAAACAGC | 2.03 ± 0.032 | 2.02 ± 0.025
GCUGUCACCGGUGCUUGGUACGUUAUAUUCAGCCGGUCUGAUGAGUCUAAUCUGAGACGAAACAGC | 1.958 ± 0.0061 | 2.04 ± 0.048
GCUGUCACCGGUGCUUGGUACGUUAUAUUCAGCCGGUCUGAUGAGUCUGAUCUGAGACGAAACAGC | 2.008 ± 0.013 | 2.032 ± 0.0047

Variant | normalized RNA/DNA level without ligand (log10) [1] | normalized RNA/DNA level with ligand (log10) [2]
GCUGUCACCGGUGCUUGGUACGUUAUAUUCAGCCGGUCUGAUGAGUCUUAUCUGAGACGAAACAGC | 1.878 ± 0.017 | 2 ± 0.023
GCUGUCACCGGUGCUUGGUACGUUAUAUUCAGCCGGUCUGAUGAGUCUCAUCUUAGACGAAACAGC | 2.034 ± 0.0024 | 2 ± 0.038
GCUGUCACCGGUGCUUGGUACGUUAUAUUCAGCCGGUCUGAUGAGUCUGAUCUUAGACGAAACAGC | 2.031 ± 0.0082 | 2.02 ± 0.083
GCUGUCACCGGUGCUUGGUACGUUAUAUUCAGCCGGUCUGAUGAGUCUUAUCUUAGACGAAACAGC | 2.007 ± 0.005 | 2.05 ± 0.021
GCUGUCACCGGUGCUUGGUACGUUAUAUUCAGCCGGUCUGAUGAGUCUUAUGAAAGACGAAACAGC | 1.873 ± 0.016 | 1.98 ± 0.023
GCUGUCACCGGUGCUUGGUACGUUAUAUUCAGCCGGUCUGAUGAGUCUCAUGACAGACGAAACAGC | 1.98 ± 0.024 | 2 ± 0.012
GCUGUCACCGGUGCUUGGUACGUUAUAUUCAGCCGGUCUGAUGAGUCUAAUGACAGACGAAACAGC | 1.9695 ± 0.0006 | 1.99 ± 0.037
GCUGUCACCGGUGCUUGGUACGUUAUAUUCAGCCGGUCUGAUGAGUCUCAUGAGAGACGAAACAGC | 1.942 ± 0.0092 | 2.006 ± 0.0049
GCUGUCACCGGUGCUUGGUACGUUAUAUUCAGCCGGUCUGAUGAGUCUCAUGAUAGACGAAACAGC | 1.97 ± 0.02 | 1.997 ± 0.012
GCUGUCACCGGUGCUUGGUACGUUAUAUUCAGCCGGUCUGAUGAGUCUAAUGAUAGACGAAACAGC | 1.937 ± 0.012 | 2 ± 0.051
GCUGUCACCGGUGCUUGGUACGUUAUAUUCAGCCGGUCUGAUGAGUCUCAUGCAAGACGAAACAGC | 1.996 ± 0.0096 | 2.01 ± 0.022
GCUGUCACCGGUGCUUGGUACGUUAUAUUCAGCCGGUCUGAUGAGUCUUAUGCAAGACGAAACAGC | 1.95 ± 0.027 | 2.01 ± 0.021
GCUGUCACCGGUGCUUGGUACGUUAUAUUCAGCCGGUCUGAUGAGUCUCAUGCCAGACGAAACAGC | 2.058 ± 0.0046 | 2.029 ± 0.014
GCUGUCACCGGUGCUUGGUACGUUAUAUUCAGCCGGUCUGAUGAGUCUGAUGCCAGACGAAACAGC | 2.014 ± 0.0064 | 2.023 ± 0.013
GCUGUCACCGGUGCUUGGUACGUUAUAUUCAGCCGGUCUGAUGAGUCUAAUGCCAGACGAAACAGC | 2.026 ± 0.012 | 2.03 ± 0.03
GCUGUCACCGGUGCUUGGUACGUUAUAUUCAGCCGGUCUGAUGAGUCUUAUGCCAGACGAAACAGC | 1.995 ± 0.0025 | 1.99 ± 0.04
GCUGUCACCGGUGCUUGGUACGUUAUAUUCAGCCGGUCUGAUGAGUCUCAUGCGAGACGAAACAGC | 2.01 ± 0.019 | 2.01 ± 0.032
GCUGUCACCGGUGCUUGGUACGUUAUAUUCAGCCGGUCUGAUGAGUCUCAUGCUAGACGAAACAGC | 2.051 ± 0.019 | 2.05 ± 0.064
GCUGUCACCGGUGCUUGGUACGUUAUAUUCAGCCGGUCUGAUGAGUCUGAUGCUAGACGAAACAGC | 1.992 ± 0.0031 | 2 ± 0.039
GCUGUCACCGGUGCUUGGUACGUUAUAUUCAGCCGGUCUGAUGAGUCUAAUGCUAGACGAAACAGC | 2.022 ± 0.01 | 2.02 ± 0.045
